Data published in PMC7241785, “Filaggrin and filaggrin 2 processing are linked together through skin aspartic acid protease activation” (PLoS ONE, 2020).

Biological target: T1, GST-Flag-SASPase 28 kDa recombinant protein (human, UniProt Q53RT3 85-343)
T1 construct: Skin aspartic acid protease, amino acids 1-259 of SASPase 28, corresponding to amino acids 85-343 of SASPase 37 (Q53RT3); Expression vector pEB9; also called GST-SASPase 28; 28 kDa SASPase; source: E. coli BL21, purified (glutathione resin); not shown: GST, N-terminal, kept; Flag, N-terminal, kept
T1 sequence (looked up): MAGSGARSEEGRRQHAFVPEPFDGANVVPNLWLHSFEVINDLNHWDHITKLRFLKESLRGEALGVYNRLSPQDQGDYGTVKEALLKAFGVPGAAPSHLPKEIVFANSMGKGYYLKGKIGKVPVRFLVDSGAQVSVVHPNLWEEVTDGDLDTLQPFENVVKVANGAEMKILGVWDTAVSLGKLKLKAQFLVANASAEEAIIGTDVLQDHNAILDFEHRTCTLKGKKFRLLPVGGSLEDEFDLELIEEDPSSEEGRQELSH
Assay: SPR; Biacore T200, 25°C, HBS-EP+; goat anti-GST on CM5 captures GST-Flag-SASPase 28 (1 μM, flow cell 2) and GST (flow cell 1); analyte MBP-HA-FLG2S100 at 0-6 μM, control MBP-HA at 3 and 6 μM; 1:1 Langmuir fit
Settings: both partners purified

B1: MBP-HA FLG2 S100 (aa 2-95) (domain or fragment, human, UniProt Q5D862 2-95, looked up)
chain: TDLLRSVVTVIDVFYKYTKQDGECGTLSKGELKELLEKELHPVLKNPDDPDTVDVIMHMLDRDHDRRLDFTEFLLMIFKLTMACNKVLSKEYCK
notes: Filaggrin 2, amino acids 2-95 containing the S100 domain; Expression vector pEB7; also called MBP-HA FLG2 (aa 2-95); source: E. coli BL21, purified (amylose resin); not shown: MBP, N-terminal, kept; HA, N-terminal, kept
- Kd: 488 nM
- koff: 0.00226 s⁻¹
- kon: 4630 M⁻¹ s⁻¹
